Earlier results as cited in article PMC10618199.

Target: insulin receptor site-2 (Homo sapiens) (UniProt P06213)

Chain of insulin (P01308 90-110): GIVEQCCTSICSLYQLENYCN

- Kd: 400 nM
Substance: insulin (from UniProt P01308)
